Results: US20160298109A1

Legend:
[1] = molecular target: gp120 of HIV-1 BaL (HIV-1 BaL); test: cell-based or functional assay
[2] = molecular target: GP120 (HIV-1 JRFL); test: SPR; settings: chains peptide; modification not given
[3] = molecular target: HIV-1 JRFL gp120 protein (HIV-1 JRFL); test: peptide blocking ELISA: coated gp120 pre-incubated with GP3 (125 ng), then recombinant CCR5-GST, anti-GST HRP; competitor CCR5

Row | Binder | inhibition of HIV-1 BaL infection (p24+ CD4 T cells), peptide without streptavidin, 100 µM [1] [%] | inhibition of HIV-1 BaL infection (p24+ CD4 T cells), peptide without streptavidin, 250 µM [1] [%] | Kd [2] [µM] | reduction in absorbance (CCR5 binding to gp120) [3] [%] | inhibition of HIV-1 BaL infection (p24+ CD4 T cells), peptide without streptavidin, 50 µM [1] [%] | viral inhibition, peptide conjugated with streptavidin, 50 µM [1] [%]
1 | SYSFCPRRQGGGGGGSGGSGK (modifications not checked) [GP3] | 34.5 | 54.7 | 39.1 | 65.8 | – | –
2 | LLALSAYMVGGGGGGSGGSGK [GP11] | – | – | 48.3 | – | – | –
3 | LWCRRLNLLGGGGGGSGGSGK [GP16] | < 1 | 50 | 42.7 | – | < 1 | 62.6
4 | RRRNVPLILGGGGGGSGGSGK [GP2] | – | – | 76.1 | – | – | –
